In PMC2962916:

Molecular target: T1, HMGD-M13A HMG box (D74-M13A) (Drosophila melanogaster, UniProt Q05783 1-74, M13A)
T1 sequence: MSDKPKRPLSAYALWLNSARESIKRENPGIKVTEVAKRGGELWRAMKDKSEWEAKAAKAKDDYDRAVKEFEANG
Experiment: X-ray crystallography

B1: GCGATATCGC decamer duplex (dsDNA)
DNA 1: GCGATATCGC
DNA 2: GCGATATCGC
binding result: binds
